Results from US20230203156A1, “ANTI-MDR1 ANTIBODIES AND USES THEREOF” (KENJOCKETY BIOTECHNOLOGY, INC., priority 2020, published 2023).
Where a chain is given by its changes, count along the chain named.

Legend:
[1] = test system: A2780 ADR ovarian carcinoma; assay: A2780 ADR drug-resistant ovarian carcinoma model in nude mice; assay type: in vivo; conditions: for tumor volume, single agent: antibody as a single agent; for tumor volume, in combination with paclitaxel: antibody plus paclitaxel
Method: Anti-ABCB1 antibodies B1.129, B1.261, B1.223, B1.225, B1.188, B1.28, and B1.226 were tested for effect on growth of tumors in immunodeficient mice. The following cancer cell lines were used for generating tumor models.
A2780 ADR: The adriamycin-resistant cell line A2780ADR has been developed by exposure of the parent A2780 cell line (Sigma catalogue no. 93112519) to adriamycin. A2780ADR is cross-resistant to melphalan and vinblastine. To retain resistance adriamycin has to be added to the media. The cells grow as a monolayer and in suspension in spinner cultures and are tumorigenic in immune deficient mice. Together with the cisplatin-resistant variant A2780cis these lines only differ in their exposure to a single drug and should facilitate the search for molecular changes responsible for the expression of pleiotropic drug resistance in human ovarian cancer.
Nude mice were implanted with A2780 ADR cells to model ovarian carcinoma. Anti-B1 monoclonal antibodies are efficacious in A2780 ADR ovarian carcinoma model in nude mice.

[2] = target: T1, human MDR1 extracellular loops 1 and 4 (ECD1, ECD4) (Homo sapiens, UniProt P08183); assay: Epitope mapping with mutant human MDR1 expressed on 293T cells (flow cytometry); assay type: binding; conditions: extracellular loop 1 and extracellular loop 4
T1 construct: FLAG (C); expressed in transfected cells; host or cells: 293T
Source text: To determine binding of anti-MDR1 mAbs listed in Table 2 to the two major extracellular loops 1 and 4 of MDR1, various mutations were constructed to alter or substitute these two loops. To examine binding to cynomolgus extracellular loops, the extracellular loop 1 and/or loop 4 of cynomolgus MDR1 were grafted (with a C-terminal FLAG tag) to substitute for the human loops in the human MDR1 using standard techniques. To examine binding dependence on the normal human loops, MDR1 variants with deletion 79-102 and deletion 82-99 in loop 1 were also generated. Loop 1 is also referred to as ECD1. Loop 4 is also referred to as ECD4. These mutant MDR1 efflux pump variants were expressed on 293T cells using standard methods to generate cells that could be used to distinguish binding of various anti-MDR1 mAbs. The different cells were incubated with different anti-MDR1 mAbs for about 1 hour at 4° C. The cells were washed twice with FACS buffer (PBS containing 0.5% BSA). Alexa647 labeled goat anti-human antibody was added as a secondary antibody, and the samples were incubated on ice for another 1 hour. Samples were washed again and analyzed by flow cytometry.
FIG. 9 summarizes the findings from preliminary epitope mapping using mutant human MDR1. […] For example, anti-MDR1 mAb B1.129 requires ECD1 and ECD4 for binding to human MDR1. All of the anti-MDR1 antibodies contact ECD4. […] ECD1 refers to the first extracellular domain of human ABCB1, ECD4 refers to the fourth extracellular domain of human ABCB1 and “others” refers to the remainder of the extracellular domains 2-3 and 5-6 of human ABCB1. Only binding to ECD1 and ECD4 was tested.

human MDR1 = target: T2, human MDR1 (Homo sapiens, UniProt P08183); assay: Antibody binding/titration to 293T cells overexpressing human MDR1 (FACS); conditions: 293T cell line overexpressing human MDR1
T2 construct: expressed in transfected cells
Method: Antibody binding to cells was evaluated by flow cytometry. 293T cells stably transfected to express human ABCB1 (293T_KPB1_OX) were washed once in flow cytometry buffer (PBS + 2% FBS + 0.02% sodium azide), resuspended at 2 x 10 \^6 cells/mL in flow cytometry buffer, and dispensed into 96-well microtiter plates at 0.1 mL/well. In the figures, “B1” refers to ABCB1 (also known as MDR1 or Pgp). Recombinant antibodies were added to cells at 5 ug/mL for initial binding confirmation, or serially diluted from 100 ug/mL in flow cytometry buffer. After incubating cells on ice for 30 min, cells were washed twice with flow cytometry buffer. Bound antibody was detected with PE-labeled F(ab′)2 fragment goat anti-human IgG (Jackson ImmunoResearch) and evaluated on an Attune NxT flow cytometer.
Binding titration of recombinant antibodies to ABCB1 transfectants was performed by 3-fold serial dilution of antibodies from 666.7 nM. Diluted antibody in flow cytometry buffer was incubated with cells on ice for 30 min. After 2 washes with flow cytometry buffer, bound antibody was detected with PE-labeled F(ab′)2 fragment goat anti-human IgG (Jackson ImmunoResearch) diluted 1:200 in flow cytometry buffer and incubated with cells for 20 min on ice. After 2 washes with flow cytometry buffer fluorescence was measured on an Attune NxT flow cytometer. Data were analyzed with GraphPad Prism 8.0 software to determine EC50′s.
(§1) Anti-MDR1 mAb B1.129 and a humanized version thereof were assessed for binding to 293T cell line overexpressing human MDR1 or to 293T cells transfected with cynomolgus MDR1. […] B1.129.hz1 and B1.129.hz2 antibodies are the same as the humanized versions B1.129.huH1-huL1(KV3) and B1.129.huH1-huL1(KV1), respectively, listed in Table 2. FIG. 10C summarizes the binding data for the B1.129 antibody.

cynomolgus MDR1 = assay: Antibody binding to 293T cells transfected with cynomolgus MDR1
Method: as §1
Anti-MDR1 mAb B1.28 and a humanized version thereof were assessed for binding to 293T cell line overexpressing human MDR1 or to 293T cells transfected with cynomolgus MDR1.

cynomolgus MDR1, sequence (as listed by the source): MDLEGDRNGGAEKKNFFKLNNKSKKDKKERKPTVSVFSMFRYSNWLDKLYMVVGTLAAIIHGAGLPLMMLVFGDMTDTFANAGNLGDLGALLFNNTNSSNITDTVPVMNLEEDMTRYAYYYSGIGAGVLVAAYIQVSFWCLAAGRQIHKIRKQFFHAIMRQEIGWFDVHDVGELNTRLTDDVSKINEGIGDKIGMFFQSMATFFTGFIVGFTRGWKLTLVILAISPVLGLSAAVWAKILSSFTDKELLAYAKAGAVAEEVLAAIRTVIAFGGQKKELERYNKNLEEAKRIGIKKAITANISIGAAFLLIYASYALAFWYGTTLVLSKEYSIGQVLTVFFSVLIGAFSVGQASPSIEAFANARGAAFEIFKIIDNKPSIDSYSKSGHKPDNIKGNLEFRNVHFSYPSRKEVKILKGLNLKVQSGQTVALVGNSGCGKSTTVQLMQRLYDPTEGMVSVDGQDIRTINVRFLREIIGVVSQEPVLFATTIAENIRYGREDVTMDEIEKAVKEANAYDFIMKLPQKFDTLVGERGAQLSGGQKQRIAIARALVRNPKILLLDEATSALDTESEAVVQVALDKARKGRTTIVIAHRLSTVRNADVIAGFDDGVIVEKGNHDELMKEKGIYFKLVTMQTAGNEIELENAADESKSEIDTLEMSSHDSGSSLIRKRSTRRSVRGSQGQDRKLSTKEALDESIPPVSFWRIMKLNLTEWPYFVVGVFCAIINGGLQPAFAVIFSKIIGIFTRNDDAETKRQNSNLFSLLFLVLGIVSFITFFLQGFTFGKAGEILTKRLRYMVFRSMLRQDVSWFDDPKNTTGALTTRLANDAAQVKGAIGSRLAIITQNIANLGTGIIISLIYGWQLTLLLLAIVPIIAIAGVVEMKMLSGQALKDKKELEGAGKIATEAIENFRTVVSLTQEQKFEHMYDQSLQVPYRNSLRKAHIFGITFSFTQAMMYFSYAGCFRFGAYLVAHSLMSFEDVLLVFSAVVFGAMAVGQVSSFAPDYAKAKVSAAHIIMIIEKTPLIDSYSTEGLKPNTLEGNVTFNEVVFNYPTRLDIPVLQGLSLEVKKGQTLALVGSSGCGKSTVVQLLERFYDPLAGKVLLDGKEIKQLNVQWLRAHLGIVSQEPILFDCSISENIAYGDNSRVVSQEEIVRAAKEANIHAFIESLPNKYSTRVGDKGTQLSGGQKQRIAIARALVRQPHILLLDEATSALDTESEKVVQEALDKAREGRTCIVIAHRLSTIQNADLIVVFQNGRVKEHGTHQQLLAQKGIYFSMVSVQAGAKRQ

B1: B1.225: anti-MDR1 antibody, Mouse; VH SEQ ID NO:105, VL SEQ ID NO:109 (antibody, listed as Mus musculus, V domains shown)
VH: EVQLVESGGALVKPGGSLKLSCAASGFTFSNYGMSWVRQTPEKRLEWVATISSGGSYTYYPDTVKGRFTISRDNAKNTLHLQMSSLRSEDTALYYCARRGTNDAWFGYWGQGTLVTVSA
VL: DVVMTQTPLSLPVSLGDQASISCRFSQSIVHSNGNTYLEWYLQKPGQSPKLLIYKVSNRFFGVPDRFSGSGSGTDFTLKISRVEAEDLGVYFCFQGSHVPQYTFGGGTKLEIK
**Q.** How did the “tumor volume, single agent” value [1] turn out when B1 was run?
**A.** decreased tumor volume

**Q.** And the “tumor volume, in combination with paclitaxel” value (from here on “tumor volume, in combination”) [1]?
**A.** decreased tumor volume

B2: B1-open.273(A): anti-MDR1 antibody, Mouse; VH SEQ ID NO:155, VL SEQ ID NO:159 (antibody, listed as Mus musculus, V domains shown)
VH: QVQLQQSGPELVKTGASVKISCKASGYSFSNYYIHWVKQSHGKSLEWIGFISCYNGATFYNQKFKGKATFTVDTSSSTAYMKFNSLTFEDSAVYYCARLPIQFGNFYPMDYWGQGTSVTVSS
VL: QIVLTQSPAIMSASLGERVTMTCTASSSVSSSYLHWYQQKPGSSPKLWIYSTSNLASGVPARFSGSGSGTSYSLTISSMEAEDAATYYCHQYHRSPPTFGAGTKLELK
**Q.** How did the “epitope on human MDR1” value [2] turn out when B2 was run?
**A.** bind to an epitope comprising extracellular loop 1 and extracellular loop 4

B3: B1.198: anti-MDR1 antibody, Mouse; VH SEQ ID NO:88, VL SEQ ID NO:90 (antibody, listed as Mus musculus, V domains shown)
VH: EVQLVESGGALVKPGGSLKLSCAASGFTFSNYAMSWVRQTPEKRLEWVATISSGGSYTYYPDSVKGRFTISRDNAKNTLYLQMSSLRSEDTALYYCAKYSNYGRFAYWGQGTLVTVSA
VL: DVVMTQTPLSLPVSLGDQASISCRSSQSIVDSNGNTYLEWYLQKPGQSPKLLIYKVSNRFFGVPDRFSGSGSGTDFTLKISRVEAEDLGVYYCFQGSHVPYTFGGGTKLEIK
**Q.** With B3 as the molecule, how does the “epitope on human MDR1” value [2] read?
**A.** bind to an epitope comprising extracellular loop 1 and extracellular loop 4

B4: B1.201: anti-MDR1 antibody, Mouse; VH SEQ ID NO:92, VL SEQ ID NO:95 (antibody, listed as Mus musculus, V domains shown)
VH: B3 VH with V12M, L20F, S30T, Y57N, P61S, N77T, S85G, Y99F, Y102F, Y107S
VL: B3 VL with V3L, S25F, D31H, N33S, K50R, F67I, K79R
**Q.** With B4 as the molecule, how does the “epitope on human MDR1” value [2] read?
**A.** bind to an epitope comprising extracellular loop 1 and extracellular loop 4

B5: B1.207: anti-MDR1 antibody, Mouse; VH SEQ ID NO:74, VL SEQ ID NO:76 (antibody, listed as Mus musculus, V domains shown)
VH: B3 VH with E1G, N77T, S85G, Y107S, A118T
VL: B3 VL with V3L, D31H, N33S, K50R, F67I, K79R
**Q.** For B5, which “epitope on human MDR1” value [2] is on record?
**A.** bind to an epitope comprising extracellular loop 1 and extracellular loop 4

B6: B1.219: anti-MDR1 antibody, Mouse; VH SEQ ID NO:99, VL SEQ ID NO:101 (antibody, listed as Mus musculus, V domains shown)
VH: B3 VH with G54V, N77T, S85G, Y107S, A118T
VL: B3 VL with V3L, V13A, D31H, N33S, K50R, F67I, K79R, K112E
**Q.** With B6 as the molecule, how does the “epitope on human MDR1” value [2] read?
**A.** bind to an epitope comprising extracellular loop 1 and extracellular loop 4

B7: B1.184: anti-MDR1 antibody, Mouse; VH SEQ ID NO:74, VL SEQ ID NO:76 (antibody, listed as Mus musculus, V domains shown)
VH: B3 VH with E1G, N77T, S85G, Y107S, A118T
VL: B3 VL with V3L, D31H, N33S, K50R, F67I, K79R
**Q.** Which “epitope on human MDR1” value [2] does the source give for B7 here?
**A.** bind to an epitope comprising extracellular loop 1 and extracellular loop 4

B8: B1.236: anti-MDR1 antibody, Mouse; VH SEQ ID NO:115, VL SEQ ID NO:116 (antibody, listed as Mus musculus, V domains shown)
VH: EAQLVESGGALVKPGGSLKLSCSASGFTFSNYAMSWVRQTPEKRLEWVATISSGGTNTYYPGSVKGRFTIARDNAKNTLYLLMSSLRSEDTALYFCAKYSNLAWFASWGQGTLVTVSA
VL: QIVLTQSPLSLPVSLGDQASISCRSSQSLVHSIGNTYLEWYLQKPGQSPKFLISKVSNRFSGVPDRFSGSGSGTDFTLKISRVEAEDLGIYYCFQGSHVPYTFGGGTKLEIK
**Q.** How did the “epitope on human MDR1” value [2] turn out when B8 was run?
**A.** bind to an epitope comprising extracellular loop 1 and extracellular loop 4

B9: B1.188: anti-MDR1 antibody, Mouse; VH SEQ ID NO:66, VL SEQ ID NO:79 (antibody, listed as Mus musculus, V domains shown)
VH: EVMLVESGGALVKPGGSLKLSCAASGFTFSNYAMSWVRQTPEKRLEWVATISSGGSYTYYPDSVKGRFTISRDNARNTLYLQMSSLRSEDTAMYYCARGYGNFAWFAYWGQGTLVTVSA
VL: B3 VL with V2I, V3Q, T7S, D31H, N33T, F61S, Y101F, G105S
**Q.** How did the “tumor volume, single agent” value [1] turn out when B9 was run?
**A.** decreased tumor volume

**Q.** What about the “tumor volume, in combination” value [1] of the same molecule?
**A.** decreased tumor volume

B10: B1.226: anti-MDR1 antibody, Mouse; VH SEQ ID NO:112, VL SEQ ID NO:113 (antibody, listed as Mus musculus, V domains shown)
VH: B3 VH with K43T, K98R, Y102L, G103A, R104W
VL: B3 VL with D31H, E39D, L51F, L52M, F61S
**Q.** How did the “tumor volume, single agent” value [1] turn out when B10 was run?
**A.** decreased tumor volume

**Q.** And the “tumor volume, in combination” value [1]?
**A.** decreased tumor volume

B11: B1.129.huH1-huL1(KV3): humanized B1.129; VH SEQ ID NO:63, VL SEQ ID NO:64 (antibody, V domains shown)
VH: EVQLVQSGAEVKKPGASVKVSCKASGYTFSTYVIHWVRQAPGQGLEWIGYIYPYNDYTKYNEKFKDRATLTSDKSTSTAYMELRSLRSDDTAVYYCSRAYYGNLVGYGVDYWGQGTTVTVSS
VL: EIVLTQSPATLSLSPGERATLSCRASSSVSFIYWYQQKPGQSPRPWIFATSNLASGVPARFSGSGSGTDYTLTISSLEPEDFAVYYCHQWGSNLPTFGGGTKLEIK
modifications: humanized sequence
**Q.** B11 was tested. Which “binding to human MDR1 (hB1)” value (human MDR1) did it give?
**A.** binds to both hB1 and cB1 with a lower affinity

**Q.** What about the “binding to cynomolgus MDR1 (cB1)” value (cynomolgus MDR1) of the same molecule?
**A.** binds to both hB1 and cB1 with a lower affinity

B12: B1.129.huH1-huL1(KV1): humanized B1.129; VH SEQ ID NO:63, VL SEQ ID NO:65 (antibody, V domains shown)
VH: B11 VH
VL: DIQLTQSPSSLSASVGDRVTITCRASSSVSFIYWYQQKPGKSPKPWIFATSNLASGVPSRFSGSGSGTDYTLTISSLQPEDFATYYCHQWGSNLPTFGGGTKLEIK
modifications: humanized sequence
**Q.** B12 was tested. Which “binding to human MDR1 (hB1)” value (human MDR1) did it give?
**A.** did not show significant binding

**Q.** What about the “binding to cynomolgus MDR1 (cB1)” value (cynomolgus MDR1) of the same molecule?
**A.** did not show significant binding
